For assay [1], the target named is T1, individual catalytic domain of human MT1-MMP (MT1-CAT) (human, UniProt P50281, biotin (EZ-Link sulfo-NHS-LC-biotin, 1:20 enzyme-biotin molar ratio) in the Fab binding ELISA only; unlabelled in the competition ELISA and the cleavage assays).
T1 construct: MT1-MMP (MMP-14), human, catalytic domain (CAT); its limits may differ; In functional rows on human cells this molecule stands for cellular full-length MT1-MMP (said in readout); also called MMP-14
Put plainly: ELISA; biotin-labelled MT1-CAT (25 nM) captured on streptavidin-coated wells; Fab 0-8,000 nM in TBS/T-0.5% gelatin, 1 h, ambient temperature; detected with HRP-conjugated goat anti-human Fab; Kd = Fab concentration that bound 50% of MT1-MMP. The note with it: both partners purified.

The target of assay [2] is T1, individual catalytic domain of human …. Put plainly: cell-based or functional assay.

Some results are limits rather than exact numbers.

B1: 3A2 Fab (Fab, V domains shown)
VH: EVQLVESGGGLVQPGGSLRLSCAASGFNLSSSSMHWVRQAPGKGLEWVASIYPSYSYTYYADSVKGRFTISADTSKNTAYLQMNSLRAEDTAVYYCARVKLQKDKSHQWIRNLVATPYGRYVMDYWGQGTLVTVSS
VL: DIQMTQSPSSLSASVGDRVTITCRASQSVSSAVAWYQQKPGKAPKLLIYSASSLYSGVPSRFSGSRSGTDFTLTISSLQPEDFATYYCQQYGYPITFGQGTKVEIK
notes: numbers count on the anti-TDRD3 Fab; From a synthetic human Fab library with 23-27 residue long CDR-H3; selection is described in an accompanying manuscript (submitted); also called 3A2 antibody; 3A2 Fab antibody; source: E. coli, purified from cell lysates (purity >95%)
In the case of B1, the equilibrium dissociation constant (Kd) in assay [1] came to 8 nM. Besides, the “IC50 of inhibition of MT1-CAT (5 nM) cleavage of the Mca-PLGL-Dpa-AR-NH2 peptide (1 uM); Fab 0-5,000 nM” value (“IC50 of inhibition of MT1-CAT” for short) in assay [2] amounted to 18 nM.

B2: 2B5 Fab (Fab, V domains shown)
VH: EVQLVESGGGLVQPGGSLRLSCAASGFNLSYSSMHWVRQAPGKGLEWVASIYPYSGYTYYADSVKGRFTISADTSKNTAYLQMNSLRAEDTAVYYCARIGVNAWAVKMSQRMLATRGSGWYVMDYWGQGTLVTVSS
VL: DIQMTQSPSSLSASVGDRVTITCRASQSVSSAVAWYQQKPGKAPKLLIYSASSLYSGVPSRFSGSRSGTDFTLTISSLQPEDFATYYCQQSSSYPYSPITFGQGTKVEIK
notes: VH CDR-H3; Only CDR-H3 is printed; Same synthetic human Fab library as 3A2 (accompanying manuscript, submitted); source: E. coli, purified from cell lysates (purity >95%)
B2: the binding result in assay [1] is given as “binds”.

B3: 3E9 Fab (Fab, V domains shown)
VH: EVQLVESGGGLVQPGGSLRLSCAASGFNLYYSSMHWVRQAPGKGLEWVASIYPSYGSTYYADSVKGRFTISADTSKNTAYLQMNSLRAEDTAVYYCARNGRYPGFLKRAHKRLLNFKAYVMDYWGQGTLVTVSS
VL: DIQMTQSPSSLSASVGDRVTITCRASQSVSSAVAWYQQKPGKAPKLLIYSASSLYSGVPSRFSGSRSGTDFTLTISSLQPEDFATYYCQQGSWYLITFGQGTKVEIK
As for B3, in assay [2], the “IC50 of inhibition of MT1-CAT” value was more than 5000 nM.

B4: DX2400 Fab (Fab, V domains shown)
VH: EVQLLESGGGLVQPGGSLRLSCAASGFTFSLYSMNWVRQAPGKGLEWVSSIYSSGGSTLYADSVKGRFTISRDNSKNTLYLQMNSLRAEDTAVYYCARGRAFDIWGQGTMVTVSS
VL: DIQMTQSPSSLSASVGDRVTITCRASQSVGTYLNWYQQKPGKAPKLLIYATSNLRSGVPSRFSGSGSGTDFTLTISSLQPEDFATYYCQQSYSIPRFTFGPGTKVDIK
notes: VH CDR-H3; Only CDR-H3 is printed; also called DX2400 Fab fragment; source: cloning, expression and isolation reported earlier [66]
As to B4, the dissociation constant Kd in assay [1] worked out at 2 nM. In assay [2], the “IC50 of inhibition of MT1-CAT” value was found to be 8.5 nM.

The values are drawn from paper PMC5356841 (Oncotarget, 2016).
